According to patent US20180201654A1, “PEPTIDE INHIBITORS OF HAUSP DEUBIQUITINASE” (priority 2012, published 2018):

Target: HAUSP TRAF domain (HAUSP^62-205) (human), Q93009
Experiment: ITC, titration against the HAUSP TRAF domain, 20 C

Chain of HAUSP TRAF domain (HAUSP^62-205) (human), Q93009 (Q93009 62-205): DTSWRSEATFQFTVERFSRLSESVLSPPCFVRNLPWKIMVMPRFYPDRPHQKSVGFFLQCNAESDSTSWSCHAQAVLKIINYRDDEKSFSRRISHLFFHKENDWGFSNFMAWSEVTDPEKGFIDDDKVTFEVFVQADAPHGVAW

Binder	Ka [M⁻¹]	TΔS [kcal/mol]	n	ΔG [kcal/mol]	ΔH [kcal/mol]	Kd [nM]
EGASTSGM (modifications not checked) [vIRF4^209-216 peptide]	100000	-10.3	0.81	-6.74	-17.1	–
EQGPADDPGEGPSTG (modifications not checked) [EBNA1^435-449 peptide]	2.1e+06	-8.69	0.81	-8.48	-17.2	480
